Results: patent US20210386836

Target: C3a, P01024
Sequence (P01024 672-748): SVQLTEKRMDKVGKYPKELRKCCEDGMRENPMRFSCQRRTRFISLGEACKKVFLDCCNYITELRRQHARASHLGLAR

B1: PrtISS-HT (protein)
chain: MRKKWVATAIIALASGSTVFLSQTSSVEAAIGETSVQNVKVSVAKNESDSQKFNNSQNLEQKTPQAAAANQNGSQVQNDHTETQLQNQQTTQSQVTQAHTEENNASSIPEPANQADHVKGNVQSAWDQGYKGQNTVVAVIDSGADTSHKDFQTMPSNPKLKQEDVQSKIDQQGYGKYVNEKFPYVYNYADRDNDYIKSDDNNQXNDSPHGQHVSGIIAADGHPEGDQQYVVGVAPEAQLMQLRVFGQFSDEKTDDVARAIYDATNLGADVIQMSLGQGVADQQLTNIEQKAVQYAIDHGVFVSISASNNGNSASVDNPSKVTAKGYGSGSEAGNYEPLNSGTVANPGASKNALTVAAETSGTGKDSDMASFSSWGPLSDFSLKPDLSAPGYQVVSTVNDNQYQTMSGTSMAGPFAAGSAALVIQRLKQTNPELKGAELVAATKALLMNSAKVQTQNGYTTPVSPRRQGAGQIDVGAATANPVYVTAADGTSSLSLRQVDEKTTFTLTFHNLTDQEQSYSFNDLGGGYTEQRDPDSGVFHEVQLAGAHVNGVGNFTLAPKEVKDLQYTLDLQGLNKNQPVEGWLHFTNDKDKSTVVVPYLAYYGDLTSENVFDQNANEEKPDIQGNRFVNENNYPLGVTDQESLKQLVNVDSDYNWQEVAKLYESGKVAFSPNDDHQSDLIKPYAYLKQNVKDLKVEILDAKGNVVRVVSDVQGVDKSYDESGVTKDASLSVSMRDNPDAFEWDGKVYDTKTGQMVTAPDGQYTYRFVATLWNEGPNQKQTADFPVVVDTQAPSLSVKYDSATHTLSGNYEDKGAGFTDYSYVTVQVNDKVFGYKLNEGESGFDNSEKTKGHFNFTLSSDALDALSGSLNKVSVTLSDVANNTTVKTVDVPAVKDQPAVSVWNATEGVEFNKNSKDYNKENDTYTLYGSAAQDFYLNGALVQVRDGKYEVPVKTTTQDLVFSTDQAGKNVLKSFTTFTPKAFFNWQNVDGFDGNFGVNIYSVKTNDPNNAVVQAAVPLGKNVKAYAQDYFTGEVYKGQVENGVATFHVHTSINQGEDGIFKRALLTGWSEVDGPAYNDKQVTSKAGVASSNHLGVYYTTDKVNRKVYTDRADLGVDVQDEAADLSSFGPTAYPGHALADLTTRTDPNPAIHFDYLNDNDTTRFGQNAVTDGYYDSVTKKFTVTGHVDPEVKSLTVLGDSSDENAPQNQVKLGKDGKFSFSFTTENVGQRPVAYIYTDQNGQKVRGTLNVVLDTVAPTLNVDQVNGNELEVKTNNPLFKLSGVVNDNLDGYRLYVNGNNIYREFLNSGYNKLAGLNTDGTDVNPYGPHNFEESFNLNDDNNQPTTHVFTIYVVDQVGNKVEKKIAVNYDPDYVAPRHHHHHH
modifications: not fully specified; X: residue not identified in the source
For B1, the “proteolytic degradation assay (SDS-PAGE)” value was “displayed activity against hC3a”.
